Patent publication US8691772B2, “HSP60, HSP60 peptides and T cell vaccines for immunomodulation” (Yeda Research and Development Co. Ltd., priority 2005, dated 2014)

What was measured:
human T cells = assay: In vivo homing assay of human T cells to bone marrow; design: species or system NOD/SCID mice; conditions: T cells pretreated (HSP60 1 μg/ml for 1 hr or mAb); 16 hr after injection
Method: In vivo homing assay. Purified human T cells were incubated (1 hr, tissue culture conditions) with HSP60 (1 μg/ml) in tissue culture conditions. The cells were then washed with PBS, and, where indicated, further incubated (30 min, 4° C.) with mouse anti-human CXCR4 mAb (10 μg/3×10^6 cells), anti-human TLR2 or anti-TLR4 mAb (each at 20 μg/ml). The cells were then washed and injected (5×10^6 cells/0.5 ml per mouse) i.v. into the tails of irradiated (375 cGY from a ^60[Co] source), 8-week-old NOD/SCID mice, and the entrance of human T cells into the bone marrow of recipient mice was evaluated as previously described (Kollet et al., 2001). Each tested sample contained 1.5×10^6 cells.

DTH = DTH assay (adoptive transfer, oxazolone); type: in vivo, BALB/c mice; conditions: oxazolone-reactive lymph node cells exposed in vitro to 1 μg/ml for 1 hr; ear swelling 24 hr
Method: DTH assays. BALB/c mice (females; 1.5 months of age) were sensitized by painting of their shaved abdominal walls with Oxazolone (2%) emulsified in 100 μl of acetone/olive oil (Sigma-Aldrich). On day 5, mice were sacrificed, their draining (inguinal, mesenteric, and cervical) lymph nodes were collected, and a single cell suspension was prepared. The cells were treated with HSP60 (1 μg/ml; 1 hr; tissue culture conditions), washed, and injected (5×10^7 cells per mouse) i.v. into the tails of naive mice (at least 6 mice per group). Painting of the earlobes with oxazolone (10 μl of 0.5% in acetone/olive oil), which generates a DTH response, was performed immediately after cell inoculation. The area of the ears that was painted was measured before challenge and 24 hr later with a micrometer. Changes in earlobe thickness are indicative of DTH reactivity. All animal studies were performed in compliance with and were approved by laws and animal welfare guidelines of The Weizmann Institute of Science (IACUC).

STAT3 = STAT3 phosphorylation in human T cells; type: cell-based
Method: Western blotting of T-cell lysates. T cells were incubated (24 hr, 37° C.) in starvation medium (RPMI medium without serum). Aliquots (5×10^6/sample) of the starved cells were preincubated (for various intervals) with different concentrations of HSP60 prior to exposure to SDF-1α (100 ng/ml, 10 min, 37° C., tissue culture conditions). These reactions were terminated by freezing the plates (−70° C., 10 min). The plates were thawed, and the cells solubilized by incubating (60 min, 4° C.) in lysis buffer [EDTA (0.5 mM), NaCL (150 mM), NaF (10 nM), Tris pH 7.5 (25 mM), Triton X-100 (1%), PMSF (200 pg/ml), and phosphatase inhibitor cocktail (1%)]. Lysates were cleared by centrifugation (30 min, 14×10^3 rpm, 4° C.), and the resulting supernatants analyzed for protein content. Sample buffer was added, the samples were boiled, and equal amounts of proteins were separated by 10% SDS-PAGE and transferred to nitrocellulose membranes. […] Phosphorylation levels of the 3-5 independent experiments were estimated by densitometry, and an average percentage of phosphorylation±SD was calculated as OD of pERK/tERK, or pPyk2/tPyk2, or pAKT/tAKT, pMLC/tMLC, or pSTAT3/tSTAT3×100%.

T-bet and GATA-3 [1] = assay: T-bet and GATA-3 expression in human T cells; type: cell-based
Method: (§1) Western blot analysis of T-cell nuclear extracts. Purified T cells (5×10^6) were preincubated with different concentrations of HSP60 for the indicated periods of time (37° C. in a 7% CO2, humidified atmosphere). […] T cells were lysed in 10 mM HEPES, 1.5 mM MgCl2, 1 mM dithiothreitol (DTT), 1 mM PMSF, 0.5% Nonidet P-40. The lysates were incubated on ice for 10 min and centrifuged at 2000 rpm for 10 min at 4° C. The supernatants (cytoplasmic extracts) were transferred and the pellet (nuclei) was suspended in buffer containing 30 mM HEPES, 450 mM NaCl, 25% Glycerol, 0.5 mM EDTA, 6 mM DTT, 12 mM MgCl2 1 mM PMSF, 10 μg/ml leupeptin, 10 μg/ml pepstatin, 1% phosphatase inhibitor cocktail, and the suspension was incubated on ice for 30 min. The lysates were cleared by centrifugation (30 min, 14×10^3 rpm, 4° C.), and the resulting supernatants analyzed for protein content. For NFATp analysis nuclear extracts were prepared with a NE-PER Nuclear and Cytoplasmic Extraction reagent (Pierce, Rockford, Ill.) according to the manufacturer's protocol. Sample buffer was then added and, after boiling, the samples, containing equal amounts of proteins, were separated on 10% SDS-PAGE gel and transferred to nitrocellulose membranes. The membranes were blocked with TBST buffer containing low-fat milk (5%), Tris pH 7.5 (20 mM), NaCl (135 mM) and Tween 20 (0.1%), and probed with the following mAb in the same buffer: anti-NF-κb (diluted 1:1000), anti-total (t) ERK (diluted 1:20,000), anti-NFATp (diluted 1:500), anti T-bet (diluted 1:1000), anti-GATA-3 (diluted 1:1000), anti-Lamin B (diluted 1:1000). Immunoreactive protein bands were visualized using labeled secondary antibodies and the enhanced ECL system.

T-bet and GATA-3 [2] = assay: T-bet and GATA-3 expression in oxazolone-reactive mouse T cells; type: cell-based; conditions: 1 ng/ml for 2 hr
Method: as §1, with “The membranes were blocked with TBST buffer containing low-fat milk (5%), Tris pH 7.5 (20 mM), NaCl (135 mM) and Tween 20 (0.1%), and probed with the following mAb in the same buffer: anti-NF-κb (diluted 1:1000), anti-total (t) ERK (diluted 1:20,000), anti-NFATp (diluted 1:500), anti T-bet (diluted 1:1000), anti-GATA-3 (diluted 1:1000), anti-Lamin B (diluted 1:1000). Immunoreactive protein bands were visualized using labeled secondary antibodies and the enhanced ECL system.” left out

ConA-induced hepatitis = ConA-induced hepatitis (acute liver injury); type: in vivo, BALB/c mice
[3] = 1 ng/ml and 1 μg/ml, no anti-CD3
[4] = i.p. 330 μl, 500 ng/ml, 18 and 1 hr prior to ConA, 24 hr after ConA

B1: HSP60: recombinant human heat shock protein 60 (StressGen Biotechnologies) (protein)
chain: AKDVKFGADARALMLQGVDLLADAVAVTMGPKGRTVIIEQSWGSPKVTKDGVTVAKSIDLKDKYKNIGAKLVQDVANNTNEEAGDGTTTATVLARSIAKEGFEKISKGANPVEIRRGVMLAVDAVIAELKKQSKPVTTPEEIAQVATISANGDKEIGNIISDAMKKVGRKGVITVKDGKTLNDELEIIEGMKFDRGYISPYFINTSKGQKCEFQDAYVLLSEKKISSIQSIVPALEIANAHRKPLVIIAEDVDGEALSTLVLNRLKVGLQVVAVKAPGFGDNRKNQLKDMAIATGGAVFGEEGLTLNLEDVQPHDLGKVGEVIVTKDDAMLLKGKGDKAQIEKRIQEIIEQLDVTTSEYEKEKLNERLAKLSDGVAVLKVGGTSDVEVNEKKDRVTDALNATRAAVEEGIVLGGGCALLRCIPALDSLTPANEDQKIGIEIIKRTLKIPAMTIAKNAGVEGSLIVEKIMQSSSEVGYDAMAGDFVNMVEKGIIDPTKVVRTALLDAAGVASLLTTAEVVVTEIPKEEKDPGMGAMGGMGGGMGGGMF
- homing of human T cells to the bone marrow (human T cells): significantly (P<0.05) decreased their homing to the bone marrow
- inhibition of ability to adoptively transfer DTH (DTH): 50%
- phosphorylation of STAT3 (STAT3): induced phosphorylation of STAT3
- T-bet expression induced by anti-CD3 (T-bet and GATA-3 [1]; 1 ng/ml and 1 μg/ml, 1 hr pre-treatment): significantly (P<0.05) inhibited the T-bet expression induced by the anti-CD3
- protein level of GATA-3 (T-bet and GATA-3 [1]; [3]): significantly (P<0.01) up-regulated the protein level of GATA-3
- protein level of T-bet (T-bet and GATA-3 [1]; [3]): but not of T-bet
- GATA-3 expression with anti-CD3 (T-bet and GATA-3 [1]; 1 hr pre-incubation): significantly up-regulated the expression level of GATA-3
- GATA-3 expression (T-bet and GATA-3 [2]): up-regulation of GATA-3 expression
- T-bet expression (T-bet and GATA-3 [2]): down-regulation of T-bet
- serum level of IL-6 (ConA-induced hepatitis; 2 hr after ConA): to a lesser extent
- serum level of IL-10 (ConA-induced hepatitis; 2 hr after ConA): increasing the level of IL-10
- serum level of TNF-α (ConA-induced hepatitis; 2 hr after ConA): reduced the levels of TNFα
- histopathologic examination of liver sections (ConA-induced hepatitis; 24 hr after ConA): only minimal liver damage
- GATA-3 expression in splenic T cells (ConA-induced hepatitis; P<0.05): significantly augmenting the expression
- serum ALT (ConA-induced hepatitis; [4]): significantly (P≦0.05) inhibited the secretion of AST and ALT
- serum AST (ConA-induced hepatitis; [4]): significantly (P≦0.05) inhibited the secretion of AST and ALT
- SOCS3 expression in splenic T cells (ConA-induced hepatitis; mice treated with HSP60 only): became elevated following HSP60 treatment
- SOCS3 expression in splenic T cells (ConA-induced hepatitis; mice treated with both ConA and HSP60): even more elevated
- ConA-induced T-bet expression in splenic T cells (ConA-induced hepatitis; mouse, in vivo): suppressed the ConA-induced expression
